# Data as given in publication PMC10903754, “o-Vanillin binds covalently to MAL/TIRAP Lys-210 but independently inhibits TLR2” (Journal of Enzyme Inhibition and Medicinal Chemistry, 2024).
# Target: the molecule itself
# Assay: turbidity assay; MAL^TIR ~87.5-103 uM in 10 mM HEPES pH 7.5, 150 mM NaCl, 30 °C; filament formation followed by absorbance at 500 nm over time; with or without o-vanillin and analogues
protein,measurement,value
"TIR domain of human MAL/TIRAP (MAL^TIR), residues 79-221 (domain or fragment, UniProt P58753 79-221, looked up, MAL (MyD88 adaptor-like protein; TIRAP), human, TIR domain, residues 79-221; construct in the vector pMCSG7; For the NMR work the same construct was 13C-15N labelled and kept in low-salt buffer (10 mM HEPES pH 7.5, 10 mM NaCl); also called WT MAL^TIR; MyD88 adaptor-like protein TIR domain; source: E. coli BL21 (DE3), purified (Ni IMAC, TEV cleavage, SEC Superdex 75)) SSRWSKDYDVCVCHSEEDLVAAQDLVSYLEGSTASLRCFLQLRDATPGGAIVSELCQALSSSHCRVLLITPGFLQDPWCKYQMLQALTEAPGAEGCTIPLLSGLSRAAYPPELRFMYYVDGRGPDGGFRQVKEAVMRYLQTLS",binding result,binds
